B1: TBX5 (parent)
chain: YQNHKITQLKIENNPFAKGFRGSD

Variants of: B1
Test: protein stability index of a GFP-peptide fusion (GPS, HEK-293T) (PSI 1-6); higher = more stable
Settings: c terminus: a fixed tail appended
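Also: lentivirally expressed fusions sorted by FACS into six bins by GFP to DsRed ratio, PSI derived from sequencing read proportions per bin multiplied by bin number.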

| Variant | protein stability index |
| --- | --- |
| EQNHKITQLKIENNPFAKGFRGSD [Y1E] | 3.58 |
| HQNHKITQLKIENNPFAKGFRGSD [Y1H] | 3.79 |
| PQNHKITQLKIENNPFAKGFRGSD [Y1P] | 3.52 |
| CQNHKITQLKIENNPFAKGFRGSD [Y1C] | 3.19 |
| KQNHKITQLKIENNPFAKGFRGSD [Y1K] | 3.91 |
| YQNHKITQLKIENNPFAKGIRGSD [F20I] | 2.47 |
| YQNHKITQLKIENNPFAKGDRGSD [F20D] | 3.41 |
| YQNHKITQLKIENNPFAKGWRGSD [F20W] | 2.73 |
| YQNHKITQLKIENNPFAKGERGSD [F20E] | 3.56 |
| YQNHKITQLKIYNNPFAKGFRGSD [E12Y] | 1.69 |
| YQNHKITQLKIRNNPFAKGFRGSD [E12R] | 1.98 |
| YQNHKITQLKIANNPFAKGFRGSD [E12A] | 2.32 |
| YQNHKITQLKIVNNPFAKGFRGSD [E12V] | 1.91 |
| YQNHKITQLKIDNNPFAKGFRGSD [E12D] | 2.94 |
| YQNHKITQLKITNNPFAKGFRGSD [E12T] | 2.75 |
| YQNHKITQLKIGNNPFAKGFRGSD [E12G] | 2.01 |
| YQNHKITQLKIFNNPFAKGFRGSD [E12F] | 1.7 |
| YQNHKITQLKIENFPFAKGFRGSD [N14F] | 2.34 |
| YQNHKITQLKIENEPFAKGFRGSD [N14E] | 2.95 |
| YQNHKITQLKIENSPFAKGFRGSD [N14S] | 2.16 |
| YQNHKITQLKIENQPFAKGFRGSD [N14Q] | 2.94 |
| YQNHKITQLKIENAPFAKGFRGSD [N14A] | 2.61 |
| YQNHKITQLKIENYPFAKGFRGSD [N14Y] | 1.89 |
| YQNHKITQLKSENNPFAKGFRGSD [I11S] | 2.96 |

| Variant | protein stability index |
| --- | --- |
| YQNHKITQLKFENNPFAKGFRGSD [I11F] | 2.25 |
| YQNHKITQLKVENNPFAKGFRGSD [I11V] | 2.58 |
| YQNHKITQLKPENNPFAKGFRGSD [I11P] | 2.71 |
| YQNHKITQLKYENNPFAKGFRGSD [I11Y] | 2.83 |
| YQNHKITQLKIENNAFAKGFRGSD [P15A] | 2.52 |
| YQNHKITQLKIENNGFAKGFRGSD [P15G] | 2.37 |
| YQNHKITQLKIENNLFAKGFRGSD [P15L] | 2.08 |
| YQNHKITQLKIENNYFAKGFRGSD [P15Y] | 2.34 |
| YQNHKITQLKIENNSFAKGFRGSD [P15S] | 2.7 |
| YQNHYITQLKIENNPFAKGFRGSD [K5Y] | 1.95 |
| YQNHTITQLKIENNPFAKGFRGSD [K5T] | 2.44 |
| YQNHFITQLKIENNPFAKGFRGSD [K5F] | 1.84 |
| YQNHMITQLKIENNPFAKGFRGSD [K5M] | 2 |
| YQNHNITQLKIENNPFAKGFRGSD [K5N] | 2.59 |
| YQNHKITQLKIENNPFLKGFRGSD [A17L] | 2.34 |
| YQNHKITQLKIENNPFDKGFRGSD [A17D] | 2.73 |
| YQNHKITQLKIENNPFKKGFRGSD [A17K] | 2.73 |
| YQNHKITQLKIENNPFCKGFRGSD [A17C] | 2.22 |
| YQNHKITQLKIENNPFGKGFRGSD [A17G] | 2.27 |
| YQNHKITQLKIENNPFIKGFRGSD [A17I] | 2.09 |
| YQNHKITQLKIENNPFFKGFRGSD [A17F] | 1.95 |
| YQNHKITQLKIENNPFMKGFRGSD [A17M] | 2.5 |
| YQNHKITQLKIENNPFRKGFRGSD [A17R] | 2.12 |
| YQNHKITQLKIENNPFPKGFRGSD [A17P] | 2.77 |

| Variant | protein stability index |
| --- | --- |
| YQNHKITQLKIENNPFEKGFRGSD [A17E] | 3.12 |
| YQNHKITQLKIENNPFNKGFRGSD [A17N] | 2.21 |
| YANHKITQLKIENNPFAKGFRGSD [Q2A] | 1.84 |
| YPNHKITQLKIENNPFAKGFRGSD [Q2P] | 2.63 |
| YFNHKITQLKIENNPFAKGFRGSD [Q2F] | 2.75 |
| YKNHKITQLKIENNPFAKGFRGSD [Q2K] | 2.85 |
| YGNHKITQLKIENNPFAKGFRGSD [Q2G] | 2.54 |
| YYNHKITQLKIENNPFAKGFRGSD [Q2Y] | 2.92 |
| YDNHKITQLKIENNPFAKGFRGSD [Q2D] | 4.02 |
| YQNHKITQLKIENNPFAKGFRGSH [D24H] | 1.99 |
| YQNHKITQLKIENNPFAKGFRGSL [D24L] | 1.95 |
| YQNHKITQLKIENNPFAKGFRGSA [D24A] | 2.43 |
| YQNHKITQLKIENNPFAKGFRGSN [D24N] | 2.57 |
| YQNHKITQLKIENNPFAKGFRGSY [D24Y] | 2.04 |
| YQNHKITQLKIENNPFAKGFRGSM [D24M] | 2.43 |
| YQNHKITQLKIENNPFAKGFRGST [D24T] | 2.11 |
| YQNHKITQLKIENNPFAKGFRGSE [D24E] | 2.64 |
| YQNHKITQLKIENNPFAKGFRGSC [D24C] | 2.25 |
| YQNHKITQLKIENNPFAKGFRGSV [D24V] | 1.83 |
| YQNHKIGQLKIENNPFAKGFRGSD [T7G] | 2.12 |
| YQNHKICQLKIENNPFAKGFRGSD [T7C] | 1.94 |
| YQNHKIKQLKIENNPFAKGFRGSD [T7K] | 3.31 |
| YQNHKIRQLKIENNPFAKGFRGSD [T7R] | 2.48 |
| YQNHKIWQLKIENNPFAKGFRGSD [T7W] | 3.51 |

| Variant | protein stability index |
| --- | --- |
| YQNHKIIQLKIENNPFAKGFRGSD [T7I] | 2.5 |
| YQNHKILQLKIENNPFAKGFRGSD [T7L] | 2.3 |
| YQNHKINQLKIENNPFAKGFRGSD [T7N] | 2.59 |
| YQNHKITQLHIENNPFAKGFRGSD [K10H] | 2.2 |
| YQNHKITQLYIENNPFAKGFRGSD [K10Y] | 2.17 |
| YQNHKITQLAIENNPFAKGFRGSD [K10A] | 2.91 |
| YQNHKITQLVIENNPFAKGFRGSD [K10V] | 2.02 |
| YQNHKITQLGIENNPFAKGFRGSD [K10G] | 1.85 |
| YQNHKITQLRIENNPFAKGFRGSD [K10R] | 2.58 |
| YQNHKITQLFIENNPFAKGFRGSD [K10F] | 1.81 |
| YQNHKITQLLIENNPFAKGFRGSD [K10L] | 2.03 |
| YQNHKITDLKIENNPFAKGFRGSD [Q8D] | 2.75 |
| YQNHKITLLKIENNPFAKGFRGSD [Q8L] | 1.41 |
| YQNHKITKLKIENNPFAKGFRGSD [Q8K] | 2.28 |
| YQNHKITCLKIENNPFAKGFRGSD [Q8C] | 1.91 |
| YQNHKITWLKIENNPFAKGFRGSD [Q8W] | 1.57 |
| YQNHKITILKIENNPFAKGFRGSD [Q8I] | 2.06 |
| YQNHKITPLKIENNPFAKGFRGSD [Q8P] | 2.41 |
| YQNHKITVLKIENNPFAKGFRGSD [Q8V] | 2.49 |
| YQNHKITNLKIENNPFAKGFRGSD [Q8N] | 2.4 |
| YQNHKITTLKIENNPFAKGFRGSD [Q8T] | 2.19 |
| YQNHKITRLKIENNPFAKGFRGSD [Q8R] | 1.99 |

Source: the supplement of paper PMC10567573
